According to paper PMC6587457, “The green microalga Lobosphaera incisa harbours an arachidonate 15S‐lipoxygenase” (Plant Biology (Stuttgart, Germany), 2018):

B1: LiLOX (Lobosphaera incisa) (protein)
chain: DSVLPHGAPFTPTSKDSVQWTTTIYTTQLLRPEIHDLGFVEVLLASEDKEAVSERMTLKGFSRKPWTNLDGVPKWGAIFTGTLMLPAAMAKPAVMFININHPPEGVQYFFANKIALDGPPGKTAHVDFVINSHVDSGPDAPRPFFTAQAYLPHAPMPDYLAELREHELAILRGTAAAAKHERKGSERIYDYDVYNDLGTPTRSRPALGGDTLKYPRRLRTGRRVVNGTEVAAKGKDWLPPDERFDDRKQENFDSRTLLATLPALSANLLAALVPAGLQKLLRTPGSEFMSISDIEQLYSGNAAEDNEDNVLTNLVAPAAAPLAAILGLLTQNSAQGNTPQKVFEQLSDFNKEVVNGALDALVVSLDDLGQSQRAAILHALSLTEKDFQEYAQAGTGRHEVHPVHANFVNLLQEVLHRLLHFSTPAVIREGREGAWTTDEEWGREQLAGQNACMIHAIWNDAPIKDLPADSAITEAVLQGHLEGHSISQLLSGDKPRLFLIDYMKGFKDYAEKIAAAHPGNVMYAGRAVLYLRTDGELVPVAIELQAPRRKLEAFTSADSPTIWLLAKCIFSSIDAGYHQLISHFVRAHACTEPYIIATRRQLSVMHPVFKLLITHCRFTLNVNSNARQQLINAGGIIEGNFTPGRYAMELSSVVYGLTWTFDSQALPHDLVNRGVARREKDGTLKLLMADYPYAADGLLVWDAFVEWFDSYLRLYYDDEVDGKRVTDDPEITAWWTEIQEKGHPDIKEGWPQLQTIADLTQILTTIAWIASAHHAAINYGQYDYSGFMPNRSPMIRKAMPPKESDDFKTLAAQDAETAILPFLASPLQATQVMATLGLLSTHSENEEYINDLEHPYLMVGTEAYNKYKEFLSRLKQAEDTIKKRNADSQGHVIRAGPDAIHYRLMNPSSITENGDVQRQGVTMSGIPTSVSM
notes: full length 994 aa; cloned without N-terminal putative plastid signal peptide of 62 residues (ChloroP); N-terminal His tag, pET28a; E. coli BL21 Star; IMAC and SEC

Tests used:
LiLOX = molecular target: T1, LiLOX (Lobosphaera incisa, UniProt A0A3G6V563); test: absorbance at […] nm (conjugated diene); type: biochemical; conditions: Hill equation fit (not Michaelis-Menten), 20 mM Bis-TRIS propane pH 7.5, 30 °C, 1 μg enzyme, 10-100 μM substrate
T1 construct: full length 994 aa; cloned without N-terminal putative plastid signal peptide of 62 residues (ChloroP); N-terminal His tag, pET28a; E. coli BL21 Star; IMAC and SEC
T1 sequence (A0A3G6V563 63-994): B1 chain

purified protein = substrate: CCCCC/C=C\C/C=C\C/C=C\C/C=C\CCCC(=O)O; test: purified protein; type: biochemical, Lobosphaera incisa; conditions: Hill equation fit (not Michaelis-Menten), 20 mM Bis-TRIS propane pH 7.5, 30 °C, 1 μg enzyme, 10-100 μM substrate

Molecule | Km (LiLOX) | K0.5 (purified protein) | kcat (purified protein) | kcat/Km (purified protein)
CCCCC/C=C\C/C=C\CCCCCCCC(=O)O [18:2(n‐6)] | 31.2 ± 2.78 µM |  |  | 
CC/C=C\C/C=C\C/C=C\CCCCCCCC(=O)O [18:3(n‐3)] | 55.5 ± 4.1 µM |  |  | 
B1 |  | 12.64 ± 1.1 µM | 10.1 ± 0.454 s⁻¹ | 799000 M⁻¹ s⁻¹
